Measured values: patent US20220204580A1 (AstraZeneca / MedImmune, published 2022)
Numbered stars: 1 amine (or outer) side, 2 acyl side, 3 side chain; on linkers, the order of the positions; unused ones are H or OH. Bridge positions count the residues as written; N and C are the ends. Square brackets hold non-standard residues; d marks the D form. Side chains are listed from the residue outwards. Ends that are not written are not given here. * marks the point of attachment. C18 diacid = O=C(O)CCCCCCCCCCCCCCCCC(=O)*; γGlu = O=C(O)[C@H](CCC(=O)[*:2])N[*:1]; αMeF = C[C@](N)(Cc1ccccc1)C(=O)O; Aib = CC(C)(N)C(=O)O

T1: human calcitonin receptor (human, UniProt P30988 25-474)
T1 sequence (looked up): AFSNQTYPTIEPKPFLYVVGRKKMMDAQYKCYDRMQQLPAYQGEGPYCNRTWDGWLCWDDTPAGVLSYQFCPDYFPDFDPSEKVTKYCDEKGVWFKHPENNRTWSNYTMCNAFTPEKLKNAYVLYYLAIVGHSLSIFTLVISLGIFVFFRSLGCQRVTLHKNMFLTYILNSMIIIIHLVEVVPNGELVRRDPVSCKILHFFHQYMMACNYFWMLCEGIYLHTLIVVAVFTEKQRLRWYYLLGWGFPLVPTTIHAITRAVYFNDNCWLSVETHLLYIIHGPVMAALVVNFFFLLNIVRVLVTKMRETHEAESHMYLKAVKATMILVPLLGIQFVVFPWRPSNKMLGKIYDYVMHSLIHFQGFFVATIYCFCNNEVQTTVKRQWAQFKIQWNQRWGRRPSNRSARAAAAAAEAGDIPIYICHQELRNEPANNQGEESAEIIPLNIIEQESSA

T2: human amylin receptor (calcitonin receptor co-expressed with receptor activity modifying protein, RAMP3) (human, UniProt P30988 25-474; O60896 24-148)
T2 sequence (looked up) 1: T1 sequence (looked up)
T2 sequence (looked up) 2: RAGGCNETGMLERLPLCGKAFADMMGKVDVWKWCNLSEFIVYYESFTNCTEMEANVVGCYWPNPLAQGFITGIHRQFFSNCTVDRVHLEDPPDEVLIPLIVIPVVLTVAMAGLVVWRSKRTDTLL

B1: Peptide 98 (SEQ ID NO: 98) (peptide)
peptide: K([γGlu-C18 diacid])KCNTATCATQRLANFL[Aib]HSSNNFGPILPPT[Aib]VGSNTY-NH2
modifications: disulfide 3-8; N-terminus assumed
SMILES: CC[C@H](C)[C@H](NC(=O)[C@@H]1CCCN1C(=O)CNC(=O)[C@H](Cc1ccccc1)NC(=O)[C@H](CC(N)=O)NC(=O)[C@H](CC(N)=O)NC(=O)[C@H](CO)NC(=O)[C@H](CO)NC(=O)[C@H](Cc1c[nH]cn1)NC(=O)C(C)(C)NC(=O)[C@H](CC(C)C)NC(=O)[C@H](Cc1ccccc1)NC(=O)[C@H](CC(N)=O)NC(=O)[C@H](C)NC(=O)[C@H](CC(C)C)NC(=O)[C@H](CCCNC(=N)N)NC(=O)[C@H](CCC(N)=O)NC(=O)[C@@H](NC(=O)[C@H](C)NC(=O)[C@@H]1CSSC[C@H](NC(=O)[C@H](CCCCN)NC(=O)[C@@H](N)CCCCNC(=O)CC[C@H](NC(=O)CCCCCCCCCCCCCCCCC(=O)O)C(=O)O)C(=O)N[C@@H](CC(N)=O)C(=O)N[C@@H]([C@@H](C)O)C(=O)N[C@@H](C)C(=O)N[C@@H]([C@@H](C)O)C(=O)N1)[C@@H](C)O)C(=O)N[C@@H](CC(C)C)C(=O)N1CCC[C@H]1C(=O)N1CCC[C@H]1C(=O)N[C@H](C(=O)NC(C)(C)C(=O)N[C@H](C(=O)NCC(=O)N[C@@H](CO)C(=O)N[C@@H](CC(N)=O)C(=O)N[C@H](C(=O)N[C@@H](Cc1ccc(O)cc1)C(N)=O)[C@@H](C)O)C(C)C)[C@@H](C)O
B2: Peptide 97 (SEQ ID NO: 97) (peptide)
peptide: K([γGlu-C18 diacid])KCNTATCATQRLANFL[Aib]HSSNNFGPILP[Aib]TNVGSNTY-NH2
modifications: disulfide 3-8; N-terminus assumed
SMILES: CC[C@H](C)[C@H](NC(=O)[C@@H]1CCCN1C(=O)CNC(=O)[C@H](Cc1ccccc1)NC(=O)[C@H](CC(N)=O)NC(=O)[C@H](CC(N)=O)NC(=O)[C@H](CO)NC(=O)[C@H](CO)NC(=O)[C@H](Cc1c[nH]cn1)NC(=O)C(C)(C)NC(=O)[C@H](CC(C)C)NC(=O)[C@H](Cc1ccccc1)NC(=O)[C@H](CC(N)=O)NC(=O)[C@H](C)NC(=O)[C@H](CC(C)C)NC(=O)[C@H](CCCNC(=N)N)NC(=O)[C@H](CCC(N)=O)NC(=O)[C@@H](NC(=O)[C@H](C)NC(=O)[C@@H]1CSSC[C@H](NC(=O)[C@H](CCCCN)NC(=O)[C@@H](N)CCCCNC(=O)CC[C@H](NC(=O)CCCCCCCCCCCCCCCCC(=O)O)C(=O)O)C(=O)N[C@@H](CC(N)=O)C(=O)N[C@@H]([C@@H](C)O)C(=O)N[C@@H](C)C(=O)N[C@@H]([C@@H](C)O)C(=O)N1)[C@@H](C)O)C(=O)N[C@@H](CC(C)C)C(=O)N1CCC[C@H]1C(=O)NC(C)(C)C(=O)N[C@H](C(=O)N[C@@H](CC(N)=O)C(=O)N[C@H](C(=O)NCC(=O)N[C@@H](CO)C(=O)N[C@@H](CC(N)=O)C(=O)N[C@H](C(=O)N[C@@H](Cc1ccc(O)cc1)C(N)=O)[C@@H](C)O)C(C)C)[C@@H](C)O
B3: Peptide 100 (SEQ ID NO: 100) (peptide)
peptide: K([γGlu-C18 diacid])KCNTATCATQRLANFL[Aib]HSSNNFGPILPPTNV[Aib]SNTY-NH2
modifications: disulfide 3-8; N-terminus assumed
SMILES: CC[C@H](C)[C@H](NC(=O)[C@@H]1CCCN1C(=O)CNC(=O)[C@H](Cc1ccccc1)NC(=O)[C@H](CC(N)=O)NC(=O)[C@H](CC(N)=O)NC(=O)[C@H](CO)NC(=O)[C@H](CO)NC(=O)[C@H](Cc1c[nH]cn1)NC(=O)C(C)(C)NC(=O)[C@H](CC(C)C)NC(=O)[C@H](Cc1ccccc1)NC(=O)[C@H](CC(N)=O)NC(=O)[C@H](C)NC(=O)[C@H](CC(C)C)NC(=O)[C@H](CCCNC(=N)N)NC(=O)[C@H](CCC(N)=O)NC(=O)[C@@H](NC(=O)[C@H](C)NC(=O)[C@@H]1CSSC[C@H](NC(=O)[C@H](CCCCN)NC(=O)[C@@H](N)CCCCNC(=O)CC[C@H](NC(=O)CCCCCCCCCCCCCCCCC(=O)O)C(=O)O)C(=O)N[C@@H](CC(N)=O)C(=O)N[C@@H]([C@@H](C)O)C(=O)N[C@@H](C)C(=O)N[C@@H]([C@@H](C)O)C(=O)N1)[C@@H](C)O)C(=O)N[C@@H](CC(C)C)C(=O)N1CCC[C@H]1C(=O)N1CCC[C@H]1C(=O)N[C@H](C(=O)N[C@@H](CC(N)=O)C(=O)N[C@H](C(=O)NC(C)(C)C(=O)N[C@@H](CO)C(=O)N[C@@H](CC(N)=O)C(=O)N[C@H](C(=O)N[C@@H](Cc1ccc(O)cc1)C(N)=O)[C@@H](C)O)C(C)C)[C@@H](C)O
B4: Peptide 101 (SEQ ID NO: 101) (peptide)
peptide: K([γGlu-C18 diacid])KCNTATCATQRLANFL[Aib]HSSNNFGPILPPTNVG[Aib]NTY-NH2
modifications: disulfide 3-8; N-terminus assumed
SMILES: CC[C@H](C)[C@H](NC(=O)[C@@H]1CCCN1C(=O)CNC(=O)[C@H](Cc1ccccc1)NC(=O)[C@H](CC(N)=O)NC(=O)[C@H](CC(N)=O)NC(=O)[C@H](CO)NC(=O)[C@H](CO)NC(=O)[C@H](Cc1c[nH]cn1)NC(=O)C(C)(C)NC(=O)[C@H](CC(C)C)NC(=O)[C@H](Cc1ccccc1)NC(=O)[C@H](CC(N)=O)NC(=O)[C@H](C)NC(=O)[C@H](CC(C)C)NC(=O)[C@H](CCCNC(=N)N)NC(=O)[C@H](CCC(N)=O)NC(=O)[C@@H](NC(=O)[C@H](C)NC(=O)[C@@H]1CSSC[C@H](NC(=O)[C@H](CCCCN)NC(=O)[C@@H](N)CCCCNC(=O)CC[C@H](NC(=O)CCCCCCCCCCCCCCCCC(=O)O)C(=O)O)C(=O)N[C@@H](CC(N)=O)C(=O)N[C@@H]([C@@H](C)O)C(=O)N[C@@H](C)C(=O)N[C@@H]([C@@H](C)O)C(=O)N1)[C@@H](C)O)C(=O)N[C@@H](CC(C)C)C(=O)N1CCC[C@H]1C(=O)N1CCC[C@H]1C(=O)N[C@H](C(=O)N[C@@H](CC(N)=O)C(=O)N[C@H](C(=O)NCC(=O)NC(C)(C)C(=O)N[C@@H](CC(N)=O)C(=O)N[C@H](C(=O)N[C@@H](Cc1ccc(O)cc1)C(N)=O)[C@@H](C)O)C(C)C)[C@@H](C)O
B5: Peptide 99 (SEQ ID NO: 99) (peptide)
peptide: K([γGlu-C18 diacid])KCNTATCATQRLANFL[Aib]HSSNNFGPILPPTN[Aib]GSNTY-NH2
modifications: disulfide 3-8; N-terminus assumed
SMILES: CC[C@H](C)[C@H](NC(=O)[C@@H]1CCCN1C(=O)CNC(=O)[C@H](Cc1ccccc1)NC(=O)[C@H](CC(N)=O)NC(=O)[C@H](CC(N)=O)NC(=O)[C@H](CO)NC(=O)[C@H](CO)NC(=O)[C@H](Cc1c[nH]cn1)NC(=O)C(C)(C)NC(=O)[C@H](CC(C)C)NC(=O)[C@H](Cc1ccccc1)NC(=O)[C@H](CC(N)=O)NC(=O)[C@H](C)NC(=O)[C@H](CC(C)C)NC(=O)[C@H](CCCNC(=N)N)NC(=O)[C@H](CCC(N)=O)NC(=O)[C@@H](NC(=O)[C@H](C)NC(=O)[C@@H]1CSSC[C@H](NC(=O)[C@H](CCCCN)NC(=O)[C@@H](N)CCCCNC(=O)CC[C@H](NC(=O)CCCCCCCCCCCCCCCCC(=O)O)C(=O)O)C(=O)N[C@@H](CC(N)=O)C(=O)N[C@@H]([C@@H](C)O)C(=O)N[C@@H](C)C(=O)N[C@@H]([C@@H](C)O)C(=O)N1)[C@@H](C)O)C(=O)N[C@@H](CC(C)C)C(=O)N1CCC[C@H]1C(=O)N1CCC[C@H]1C(=O)N[C@H](C(=O)N[C@@H](CC(N)=O)C(=O)NC(C)(C)C(=O)NCC(=O)N[C@@H](CO)C(=O)N[C@@H](CC(N)=O)C(=O)N[C@H](C(=O)N[C@@H](Cc1ccc(O)cc1)C(N)=O)[C@@H](C)O)[C@@H](C)O
B6: Peptide 11 (SEQ ID NO: 11) (peptide)
peptide: K([γGlu-γGlu-C18 diacid])CNTATCATQRLAEFLRHSSNN[αMeF]GPILPPTNVGSNTY-NH2
modifications: disulfide 2-7; N-terminus assumed
SMILES: CC[C@H](C)[C@H](NC(=O)[C@@H]1CCCN1C(=O)CNC(=O)[C@](C)(Cc1ccccc1)NC(=O)[C@H](CC(N)=O)NC(=O)[C@H](CC(N)=O)NC(=O)[C@H](CO)NC(=O)[C@H](CO)NC(=O)[C@H](Cc1c[nH]cn1)NC(=O)[C@H](CCCNC(=N)N)NC(=O)[C@H](CC(C)C)NC(=O)[C@H](Cc1ccccc1)NC(=O)[C@H](CCC(=O)O)NC(=O)[C@H](C)NC(=O)[C@H](CC(C)C)NC(=O)[C@H](CCCNC(=N)N)NC(=O)[C@H](CCC(N)=O)NC(=O)[C@@H](NC(=O)[C@H](C)NC(=O)[C@@H]1CSSC[C@H](NC(=O)[C@@H](N)CCCCNC(=O)CC[C@H](NC(=O)CC[C@H](NC(=O)CCCCCCCCCCCCCCCCC(=O)O)C(=O)O)C(=O)O)C(=O)N[C@@H](CC(N)=O)C(=O)N[C@@H]([C@@H](C)O)C(=O)N[C@@H](C)C(=O)N[C@@H]([C@@H](C)O)C(=O)N1)[C@@H](C)O)C(=O)N[C@@H](CC(C)C)C(=O)N1CCC[C@H]1C(=O)N1CCC[C@H]1C(=O)N[C@H](C(=O)N[C@@H](CC(N)=O)C(=O)N[C@H](C(=O)NCC(=O)N[C@@H](CO)C(=O)N[C@@H](CC(N)=O)C(=O)N[C@H](C(=O)N[C@@H](Cc1ccc(O)cc1)C(N)=O)[C@@H](C)O)C(C)C)[C@@H](C)O

Target: T1, human calcitonin receptor
Assay: cell-based or functional assay

Binder | EC50 (cAMP production) [nM]
B1 | 0.972
B2 | 0.944
B3 | 0.459
B4 | 0.441
B5 | 1.82
B6 | 3.64

Target: T2, human amylin receptor (calcitonin …)
Assay: cell-based or functional assay

Binder | EC50 (cAMP production) [nM] | Ratio (EC50 hCTR / EC50 hAMYR3)
B1 | 0.942 | 1
B2 | 0.684 | 1
B3 | 0.364 | 1
B4 | 0.177 | 2
B5 | 3.8 | 0.5
B6 | 0.177 | 21
